T1: factor H binding protein (fHbp) peptide V1.1, N-terminally truncated, soluble (N. meningitidis, UniProt Q9JXV4 25-274)
T1 sequence: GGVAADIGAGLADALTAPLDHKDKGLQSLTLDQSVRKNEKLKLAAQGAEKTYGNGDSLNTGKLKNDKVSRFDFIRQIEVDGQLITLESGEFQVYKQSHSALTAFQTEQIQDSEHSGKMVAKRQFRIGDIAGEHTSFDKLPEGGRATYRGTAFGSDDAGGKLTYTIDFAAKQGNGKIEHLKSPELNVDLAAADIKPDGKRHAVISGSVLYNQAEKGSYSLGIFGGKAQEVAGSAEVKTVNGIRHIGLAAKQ

B1: domains 6 and 7 of human complement factor H (CFH6/7) (domain or fragment, UniProt P08603 321-444, looked up)
chain: TLKPCDYPDIKHGGLYHENMRRPYFPVAVGKYYSYYCDEHFETPSGSYWDHIHCTQDGWSPAVPCLRKCYFPYLENGYNQNYGRKFVQGKSIDVACHPGYALPKAQTTVTCMENGWSPTPRCIR

What was measured:
Assay in all cases: SPR
[1] = molecular target: fHbp^V1.1:PorA^117/P1.16 (N. meningitidis) (UniProt Q9JXV4)
[2] = molecular target: fHbp^V1.1:PorA^267/P1.16 (N. meningitidis) (UniProt Q9JXV4)
[3] = molecular target: fHbp^V1.1:PorA^309/P1.16 (N. meningitidis)
[4] = molecular target: fHbp^V1.1:PorA^151/P1.16 (N. meningitidis) (UniProt Q9JXV4)
[5] = molecular target: fHbp^V1.1:PorA^294/P1.16 (N. meningitidis)
[6] = molecular target: T1, factor H binding protein (fHbp) peptide …; settings: both partners purified

| Molecule | Kd [1] [nM] | Kd [2] [nM] | Kd [3] [nM] | Kd [4] [nM] | Kd [5] [nM] | Kd [6] [nM] |
| --- | --- | --- | --- | --- | --- | --- |
| domains 6 and 7 of human complement factor H (CFH6/7) (from UniProt P08603 321-444) (domain or fragment) | 2.3 | 28 | 5.5 | 2.3 | 2.7 | – |
| B1 | – | – | – | – | – | 3.6 ± 0.4 |

— paper PMC5849709, “Structure-based design of chimeric antigens for multivalent protein vaccines” (Nature Communications, 2018)
